Paper PMC6317155, “Identification of Small Peptides that Inhibit NADPH Oxidase (Nox2) Activation” (Antioxidants, 2018)

T1: aiPLA2 activity of recombinant human Prdx6 (Homo sapiens, UniProt P30041)
T1 sequence (P30041 1-224): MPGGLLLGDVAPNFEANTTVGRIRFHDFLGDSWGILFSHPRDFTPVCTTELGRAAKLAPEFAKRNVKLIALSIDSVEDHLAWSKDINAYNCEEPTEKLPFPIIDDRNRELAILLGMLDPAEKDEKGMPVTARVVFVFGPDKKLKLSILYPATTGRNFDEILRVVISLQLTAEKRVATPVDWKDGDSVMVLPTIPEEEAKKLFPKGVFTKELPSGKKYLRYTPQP

T2: recombinant human peroxiredoxin 6 (Prdx6) (human) (UniProt P30041)
T2 sequence: T1 sequence (P30041 1-224)

T3: mouse peroxiredoxin 6 (Prdx6), endogenous in lung homogenate (mouse (endogenous in lung)) (UniProt O08709)
T3 sequence: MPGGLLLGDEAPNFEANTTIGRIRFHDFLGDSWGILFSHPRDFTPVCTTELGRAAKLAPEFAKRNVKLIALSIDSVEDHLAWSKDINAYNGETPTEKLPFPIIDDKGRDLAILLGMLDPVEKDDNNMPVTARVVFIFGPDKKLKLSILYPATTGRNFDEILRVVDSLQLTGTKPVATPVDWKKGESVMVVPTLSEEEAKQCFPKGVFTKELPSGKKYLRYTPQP


Columns and labels:
[1] = target: T1, aiPLA2 activity of recombinant human Prdx6; assay: aiPLA2 (PLA2) activity of recombinant human Prdx6 in vitro, 3H-DPPC liposome substrate; format: biochemical; details: for Concentration of peptide for inhibition of aiPLA2 activity by 50%: concentration corrected for purity of the PIP preparation, Figure 2, n = 3; for Activity (aiPLA2 of recombinant hPrdx6), deletion from N-term: peptides deleted from N-terminus of 16-aa rat-derived SP-A peptide, no-peptide control 94.8, 3H-DPPC liposomes, 60 min; for Activity (aiPLA2 of recombinant hPrdx6), deletion from N-term / Activity (aiPLA2 of recombinant hPrdx6), human-derived peptides: one assay done in duplicate; for Activity (aiPLA2 of recombinant hPrdx6), human-derived peptides: deletions from 16-aa human-derived SP-A peptide, no-peptide control 92.0
Protocol: The PLA2 activity of Prdx6 was measured as described previously. The substrate was dipalmitoylphosphatidylcholine (DPPC) with ^3H-9,10-palmitate in the sn-2 position of DPPC incorporated into lung surfactant-like liposomes as described above; substrate was incubated with enzyme for 60 min and activity was calculated from the liberation of ^3H-palmitate as measured by scintillation counting.
The effect of the PIP peptides on the aiPLA2 activity of human recombinant Prdx6 was determined by in vitro assay; the effective concentration of inhibitor was corrected for purity of the PIP preparation. Saturating concentrations of all three peptides (PIP-1, PIP-2, PIP-3) inhibited aiPLA2 activity by ~70% (Figure 2). The basis for the remaining 30% of activity that was not inhibited is unclear.

[2] = target: T2, recombinant human peroxiredoxin 6 (Prdx6) (human)
[3] = target: T2, recombinant human peroxiredoxin 6 (Prdx6) (human); remark: listed apart in the source
[4] = target: T2, recombinant human peroxiredoxin 6 (Prdx6) (human); remark: listed apart in the source
[5] = target: T3, mouse peroxiredoxin 6 (Prdx6), endogenous in lung homogenate (mouse (endogenous in lung))
[6] = target: T2, recombinant human peroxiredoxin 6 (Prdx6) (human); remark: listed apart in the source

| Molecule | Activity (aiPLA2 of recombinant hPrdx6), deletion from N-term [1] | concentration of peptide for inhibition of aiPLA2 activity by 50% [3] | inhibition of the aiPLA2 activity of human recombinant Prdx6 in vitro against peptide concentration, up to saturating concentrations [3] | molar stoichiometry of peptide to Prdx6 monomer worked out from the PIP to Prdx6 ratio at maximal inhibition of aiPLA2 activity (peptide to Prdx6 monomer, molar) [3] | further results |
| --- | --- | --- | --- | --- | --- |
| LYDIRHQIL [PIP-3] |  |  |  |  | Inhibition of aiPLA2 activity of human recombinant Prdx6 [1]: ~ 70%; Concentration of peptide for inhibition of aiPLA2 activity by 50% ([1]; recombinant human Prdx6): ~ 10 µg/mg Prdx6 |
| LYEIKHQIL [PIP-1] | 32.3 nmol/min/mg Prot. |  |  |  | Inhibition of aiPLA2 activity at saturating concentrations of peptide ([1]; recombinant human Prdx6, Figure 2, mean + SEM, n = 3): ~ 70%; Concentration of peptide for inhibition of aiPLA2 activity by 50% ([1]; recombinant human Prdx6): ~ 8.3 µg/mg Prdx6 |
| QTELYEIKHQIL [12-aa N-terminal deletion of rat 16-aa peptide] | 31.5 nmol/min/mg Prot. |  |  |  |  |
| TLHDFRHQI [9-aa human peptide with C-terminal aa deleted] |  |  |  |  | Activity (aiPLA2 of recombinant hPrdx6), human-derived peptides [1]: 89.6 nmol/min/mg Prot. |
| TLHDFRHQIL [10-aa N-terminal deletion of human 16-aa peptide] |  |  |  |  | Activity (aiPLA2 of recombinant hPrdx6), human-derived peptides [1]: 31.5 nmol/min/mg Prot. |
| YEIKHQIL [8-aa N-terminal deletion of rat 16-aa peptide] | 94.4 nmol/min/mg Prot. |  |  |  |  |

Further lines, with some results ahead:

| Activity (aiPLA2 of recombinant hPrdx6), deletion from N-term [1] | concentration of peptide for inhibition of aiPLA2 activity by 50% [3] | inhibition of the aiPLA2 activity of human recombinant Prdx6 in vitro against peptide concentration, up to saturating concentrations [3] | molar stoichiometry of peptide to Prdx6 monomer worked out from the PIP to Prdx6 ratio at maximal inhibition of aiPLA2 activity (peptide to Prdx6 monomer, molar) [3] | Molecule | further results |
| --- | --- | --- | --- | --- | --- |
|  | 8.3 µg/mg Prdx6 | 70% | 1.5 | LYEIKHQIL [PLA2-inhibitory peptide 1 (PIP-1), rat/mouse SP-A nine-aa peptide] | aiPLA2 activity of recombinant hPrdx6 with the peptide (no peptide: 94.8; scrambled peptide: 93.5) (nmol/min/mg Prot.) [2]: 32.3 |
|  | 6.6 µg/mg Prdx6 | 70% | 1.5 | LHDFRHQIL [PLA2-inhibitory peptide 2 (PIP-2), human SP-A nine-aa peptide] | aiPLA2 activity of recombinant hPrdx6 with the peptide (no peptide: 92.0) (nmol/min/mg Prot.) [4]: 29.9; inhibition of PLA2 activity at pH 4 without Ca2+ (aiPLA2) of wild type mouse lung homogenate after addition of PIP-2 to the assay [5]: 91% |
|  | 10 µg/mg Prdx6 | 70% | 1.5 | LYDIRHQIL [PLA2-inhibitory peptide 3 (PIP-3), hybrid of PIP-1 and PIP-2] | inhibition of aiPLA2 activity by the hybrid nine-aa peptide [6]: 70% |
